Data: patent US20240327512A1 (DUKE UNIVERSITY, published 2024)
Numbering of substitutions follows the chain as printed.

T1: human TREM2 (Triggering Receptor Expressed on Myeloid cells-2), wild-type (human, UniProt Q9NZC2 19-230)
T1 sequence (looked up): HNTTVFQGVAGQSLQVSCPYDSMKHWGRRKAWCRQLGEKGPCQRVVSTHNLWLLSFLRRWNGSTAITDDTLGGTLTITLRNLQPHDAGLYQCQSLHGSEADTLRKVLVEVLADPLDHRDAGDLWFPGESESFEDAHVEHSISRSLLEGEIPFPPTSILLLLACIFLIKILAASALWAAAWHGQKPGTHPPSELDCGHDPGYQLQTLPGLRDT

B1: antibody clone 9D10 (antibody, V domains shown)
VH: EVQLVESGGGLVQPGRSLKLSCAASGFTFSDYGMAWVRQAPTKGLEWVASISNSGGRTFYRDSVKGRFTVSRDNAKSTLYLQMDSLRSEGTATYYCTTIGGGSTFDYWGQGVMVTVSS
VL: DVVMTQTPPSLSVAIGQSVSISCKSSQSLVYSDGKTYLHWLLQSPGRSPKRLIYQVSNLGSGVPDRFSGTGSQKDFTLKISRVEAEDLGVYYCAQTTHFPPTFGSGTKLEIK
B2: antibody clone 14B3 (antibody, V domains shown)
VH: B1 VH with T28S, D31N, S54N, V70I, D84H, G90D
VL: B1 VL with I21M, R47G
B3: antibody clone 13F4 (antibody, V domains shown)
VH: B1 VH with Q3H, G26R, D31N, G66A, V70I, N74S, K76E, G90D
VL: B1 VL
B4: antibody clone 7F12 (antibody, V domains shown)
VH: B1 VH with D31N, A49T, N53Y, F59Y, V70I, G90D, T91S, T98P, I99V
VL: B1 VL
B5: antibody clone 21A3 (antibody, V domains shown)
VH: EVKLLESGGGLVQPGGSMRLSCAASGFTFTDFYMNWIRQPAGKAPEWLGLIRNKANGYTTQYNPSVKGRFTISRDNTQNMLYLQMNTLRGEDTATYYCARIGINNGGSLDYWGQGVMVTVSS
VL: DILINQSPASLTVSAGEKVTMSCKSSQSLLYSEKNQDYLAWYQQKPGQSPKLLMYGASYRHTGVPDRFTGSGSGTDFTLTISSVQAEDLADYYCEQTYSYPYTFGAGTKLELK
notes: Rat monoclonal IgG from hybridoma; also called TREMX antibody
B6: antibody clone 1G6 (antibody, V domains shown)
VH: B5 VH with M18L, A23V, Y58F, Q61E, N79H, G90A
VL: B5 VL with A15T, K34N, N35K, S49F, M54I, Y59N, S82N, S83I
notes: as for B5
B7: antibody clone 8A11 (antibody, V domains shown)
VH: B5 VH with A55T, N56K, Q61E, P64T, T87S, G90P, I103V
VL: B5 VL with N5I, E17A, K18R, K34N, S49F, M54I, Y59N
notes: as for B5
B8: antibody clone 7A12 (antibody, V domains shown)
VH: B5 VH
VL: B5 VL
notes: as for B5
B9: antibody clone 18F9 (antibody, V domains shown)
VH: B5 VH with A23V, A24V, P40A, A55V, T59R, Q61E, T77I, G90A
VL: B5 VL with K34N, S49F, M54I, Y59N
notes: as for B5
B10: antibody clone 15C5 (antibody, V domains shown)
VH: B5 VH with N56Y, Q61E, N79D, G90A, N105Y
VL: B5 VL with M21V, K34S, S49F, M54I, D91H
notes: as for B5
B11: antibody clone 14D3 (antibody, V domains shown)
VH: B5 VH with S7F, K43R, A55T, N56K, Q61E, P64R, T87S, G90P, I103V
VL: B5 VL with N5I, E17A, K18R, K34N, S49F, M54I, Y59N
notes: as for B5
B12: antibody clone 10C3 (antibody, V domains shown)
VH: B5 VH with K43E, A44T, A55T, N56K, Q61E, T87S, G90P, I103T
VL: B5 VL with N5I, E17A, K18R, K34N, S49F, M54I, Y59N
notes: as for B5
B13: antibody clone 14D8 (antibody, V domains shown)
VH: B5 VH with Q61V
VL: B5 VL with A15T, K24R, S49F, M54I
notes: as for B5

Molecular target: T1, human TREM2 (Triggering Receptor …)
Assay: cell-based or functional assay

Question: Which results are given for B1?
Answer: decrease of TREM2 cleavage: ~70%; increase of the level of mature TREM2: ≤ 5 fold

Question: Which “decrease of TREM2 cleavage” value does the source give for B2 here?
Answer: ~70%

Question: What about the “increase of the level of mature TREM2” value of the same binder?
Answer: ≤ 5 fold

Question: How did the “decrease of TREM2 cleavage” value turn out when B3 was run?
Answer: ~70%

Question: And the “increase of the level of mature TREM2” value?
Answer: ≤ 5 fold

Question: Which “decrease of TREM2 cleavage” value does the source give for B4 here?
Answer: ~70%

Question: What about the “increase of the level of mature TREM2” value of the same binder?
Answer: ≤ 5 fold

Molecular target: T1, human TREM2 (Triggering Receptor …)
Assay: hybridoma supernatant screen: peptide ELISA and detection of TREM2 on the cell surface
Method: Human TREM2-reactive hybridoma supernatants are screened for their ability to detect TREM2 on the cell surface of HEK293 Flp-In cells stably overexpressing human wild-type TREM2. This procedure is described in Kleinberger, G., et al., TREM2 mutations implicated in neurodegeneration impair cell surface transport and phagocytosis. Sci Transl Med, 2014. 6(243): p. 243. In particular, HEK293 Flp-In cells either expressing human full-length TREM2 or empty vector (control) are incubated with the respective TREM2-reactive supernatants. Binding of TREM2-reactive supernatants is visualized using isotype-specific antibodies. A detailed description of the generation and selection of monoclonal antibodies against the TREM2 cleavage site is given in the Examples.
A peptide comprising the amino acid sequence of residues 145-155 (SEQ ID NO:2) of human TREM2 or residues 153-162 (SEQ ID NO:3) of human TREM2 was synthesized and coupled at the N-terminus to ovalbumin or biotin (Peps4LS, Heidelberg, Germany). Rats were immunized subcutaneously (s.c.) and intraperitoneally (i.p.) with a mixture of 50 μg OVA-coupled peptide in […] PBS, 5 nmol CpG2006 (TIB MOLBIOL, Berlin, Germany), and […] incomplete Freund's adjuvant. After 6 weeks, a boost without Freund's adjuvant was given i.p. and s.c. 3 days before fusion. Fusion of the myeloma cell line P3X63-Ag8.653 with the rat immune spleen cells was performed using polyethylene glycol 1500 according to standard procedure (Koehler and Milstein, Nature. 1975, 256:495-497). After fusion, the cells were plated in 96-well plates using RPMI 1640 with 20% fetal calf serum, penicillin/streptomycin, glutamine, pyruvate, and non-essential amino acids supplemented with HAT HybriMax medium supplement (Sigma,). Hybridoma supernatants were tested in an enzyme-linked immunoassay using biotinylated peptides (0.2 μg/ml) comprising the amino acid sequence of residues 145-155 of human TREM2 or residues 153-162 of human TREM2 bound to avidin-coated plates. After blocking with PBS/2% FCS, hybridoma supernatants were added for 30 min. After one wash with PBS, bound antibodies were detected with a cocktail of HRP-conjugated mAbs against the four rat IgG isotypes. HRP was visualized with ready to use TMB substrate (1-Step™ Ultra TMB-ELISA, Thermo).

Question: Does B5 bind?
Answer: binds

Question: Does B6 bind?
Answer: binds

Question: Does B7 bind?
Answer: binds

Question: Does B8 bind?
Answer: binds

Question: Does B9 bind?
Answer: binds

Question: Does B10 bind?
Answer: binds

Question: Does B11 bind?
Answer: binds

Question: Does B12 bind?
Answer: binds

Question: Does B13 bind?
Answer: binds
